The record followed here is paper PMC11886768 (2025).

Sequences and labels used below:
B1: CRY1 (third protein in the mammalian three-hybrid assay) [Arabidopsis] / E-COP1 [Arabidopsis] (parent complex)
chain 1: MSGSVSGCGSGGCSIVWFRRDLRVEDNPALAAAVRAGPVIALFVWAPEEEGHYHPGRVSRWWLKNSLAQLDSSLRSLGTCLITKRSTDSVASLLDVVKSTGASQIFFNHLYDPLSLVRDHRAKDVLTAQGIAVRSFNADLLYEPWEVTDELGRPFSMFAAFWERCLSMPYDPESPLLPPKKIISGDVSKCVADPLVFEDDSEKGSNALLARAWSPGWSNGDKALTTFINGPLLEYSKNRRKADSATTSFLSPHLHFGEVSVRKVFHLVRIKQVAWANEGNEAGEESVNLFLKSIGLREYSRYISFNHPYSHERPLLGHLKFFPWAVDENYFKAWRQGRTGYPLVDAGMRELWATGWLHDRIRVVVSSFFVKVLQLPWRWGMKYFWDTLLDADLESDALGWQYITGTLPDSREFDRIDNPQFEGYKFDPNGEYVRRWLPELSRLPTDWIHHPWNAPESVLQAAGIELGSNYPLPIVGLDEAKARLHEALSQMWQLEAASRAAIENGSEEGLGDSAEVEEAPIEFPRDITMEETEPTRLNPNRRYEDQMVPSITSSLIRPEEDEESSLNLRNSVGDSRAEVPRNMVNTNQAQQRRAEPASNQVTAMIPEFNIRIVAESTEDSTAESSSSGRRERSGGIVPEWSPGYSEQFPSEENGIGGGSTTSSYLQNHHEILNWRRLSQTG
chain 2: MEEISTDPVVPAVKPDPRTSSVGEGANRHENDDGGSGGSEIGAPDLDKDLLCPICMQIIKDAFLTACGHSFCYMCIITHLRNKSDCPCCSQHLTNNQLYPNFLLDKLLKKTSARHVSKTASPLDQFREALQRGCDVSIKEVDNLLTLLAERKRKMEQEEAERNMQILLDFLHCLRKQKVDELNEVQTDLQYIKEDINAVERHRIDLYRARDRYSVKLRMLGDDPSTRNAWPHEKNQIGFNSNSLSIRGGNFVGNYQNKKVEGKAQGSSHGLPKKDALSGSDSQSLNQSTVSMARKKRIHAQFNDLQECYLQKRRQLADQPNSKQENDKSVVRREGYSNGLADFQSVLTTFTRYSRLRVIAEIRHGDIFHSANIVSSIEFDRDDELFATAGVSRCIKVFDFSSVVNEPADMQCPIVEMSTRSKLSCLSWNKHEKNHIASSDYEGIVTVWDVTTRQSLMEYEEHEKRAWSVDFSRTEPSMLVSGSDDCKVKVWCTRQEASVINIDMKANICCVKYNPGSSNYIAVGSADHHIHYYDLRNISQPLHVFSGHKKAVSYVKFLSNNELASASTDSTLRLWDVKDNLPVRTFRGHTNEKNFVGLTVNSEYLACGSETNEVYVYHKEITRPVTSHRFGSPDMDDAEEEAGSYFISAVCWKSDSPTMLTANSQGTIKVLVLAA

This experiment covers variants of B1. Put plainly: luciferase complementation imaging (LCI); transfected N. benthamiana leaves, n = 14, CCD camera; value is the mean ('+'); median about 0.44, box about 0.22-0.68; parent: 1; read off a plot.
With chain 1 V548A, chain 1 P549A, the ratio to parent is around 0.43.
